Common to all, as to assay: purified protein
Type in all cases: biochemical, Lathyrus oleraceus

Substrate in series [1]: NCCC(O)CN
Conditions: 0.1 mol/L potassium phosphate pH 7.0, 30 °C, O2 co-substrate.

Substrate in series [2]: NCC1CCNCC1
The conditions noted are these: 0.1 mol/L potassium phosphate pH 7.0, 30 °C, O2 co-substrate.

Substrate in series [3]: NCCCCCCN
The conditions noted are these: 0.1 mol/L potassium phosphate pH 7.0, 30 °C, O2 co-substrate, excess substrate inhibition above 500 µmol/L.

Substrate in series [4]: NCCCCN
Conditions: 0.1 mol/L potassium phosphate pH 7.0, 30 °C, O2 co-substrate.

Substrate in series [5]: NCCCCCN
Conditions: 0.1 mol/L potassium phosphate pH 7.0, 30 °C, O2 co-substrate, excess substrate inhibition above 500 µmol/L.

Substrate in series [6]: N=C(N)NCCCCN
Conditions: 0.1 mol/L potassium phosphate pH 7.0, 30 °C, O2 co-substrate.

B1: Pea seedling amine oxidase (PSAO); diamine oxidase (DAO) (Lathyrus oleraceus) (protein)
chain: VTPLHVQHPLDPLTKEEFLAVQTIVQNKYPISNNRLAFHYIGLDDPEKDHVLRYETHPTLVSIPRKIFVVAIINSQTHEILINLRIRSIVSDNIHNGYGFPILSVDEQSLAIKLPLKYPPFIDSVKKRGLNLSEIVCSSFTMGWFGEEKNVRTVRLDCFMKESTVNIYVRPITGITIVADLDLMKIVEYHDRDIEAVPTAENTEYQVSKQSPPFGPKQHSLTSHQPQGPGFQINGHSVSWANWKFHIGFDVRAGIVISLASIYDLEKHKSRRVLYKGYISELFVPYQDPTEEFYFKTFFDSGEFGFGLSTVSLIPNRDCPPHAQFIDTYVHSANGTPILLKNAICVFEQYGNIMWRHTENGIPNESIEESRTEVNLIVRTIVTVGNYDNVIDWEFKASGSIKPSIALSGILEIKGTNIKHKDEIKEDLHGKLVSANSIGIYHDHFYIYYLDFDIDGTHNSFEKTSLKTVRIKDGSSKRKSYWTTETQTAKTESDAKITIGLAPAELVVVNPNIKTAVGNEVGYRLIPAIPAHPLLTEDDYPQIRGAFTNYNVWVTAYNRTEKWAGGLYVDHSRGDDTLAVWTKQNREIVNKDIVMWHVVGIHHVPAQEDFPIMPLLSTSFELRPTNFFERNPVLKTLSPRDVAWPGCSN
notes: native enzyme purified to homogeneity from 7-day-old etiolated pea seedlings (roots and cotyledons removed); homodimer, 72 kDa subunit; Cu(II) and topaquinone
What is called Km is the substrate concentration at which the rate is half of its maximum. The kcat is the number of substrate molecules converted per active site and unit of time at saturation. Usually kcat/Km stands for the turnover number divided by the Michaelis constant. As to B1, the Michaelis-Menten constant (Km) in series [1] turned out to be 589 ± 33 µM; in series [2], 618 ± 24 µM; in series [3], 95 ± 7 µM; in series [4], 289 ± 15 µM; in series [5], 148 ± 8 µM; in series [6], 446 ± 23 µM. Further, the kcat stood at 4.9 s⁻¹ in series [1]; 4.2 s⁻¹ in series [2]; 13 s⁻¹ in series [3]; 47.4 s⁻¹ in series [4]; 60.9 s⁻¹ in series [5]; 8.4 s⁻¹ in series [6]. Moreover, the kcat/Km in series [1] worked out at 8320 M⁻¹ s⁻¹; in series [2], 6800 M⁻¹ s⁻¹; in series [3], 137000 M⁻¹ s⁻¹; in series [4] it was 164000 M⁻¹ s⁻¹; in series [5] it was 411000 M⁻¹ s⁻¹; in series [6], 18800 M⁻¹ s⁻¹.

The values above are taken from PMC11509957, “A New Activity Assay Method for Diamine Oxidase Based on Matrix-Assisted Laser Desorption/Ionization Time-of-Flight Mass Spectrometry” (Molecules, 2024).
